Values of other authors, collected in patent publication US8217152B2, “Process for the purification of IL-18 binding protein” (Ares Trading S.A., priority 2005, dated 2012).

What was measured:
induction of IFN-γ = conditions: mice injected with LPS
IL-18 = molecular target: T1, IL-18 (Homo sapiens, UniProt Q14116); conditions: Kim et al. 2000; read-out: dissociation constant (Kd) for IL-18
T1 sequence (Q14116 37-193): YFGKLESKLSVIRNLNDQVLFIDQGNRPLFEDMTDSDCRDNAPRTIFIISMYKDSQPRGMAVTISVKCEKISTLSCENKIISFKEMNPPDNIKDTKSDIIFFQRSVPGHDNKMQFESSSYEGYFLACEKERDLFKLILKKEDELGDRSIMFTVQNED

[1] = system: IL-18 activation of NF-κB; conditions: in vitro
IL-18 induction of IFN-γ = conditions: in vitro

B1: IL-18BP: naturally occurring soluble protein that binds IL-18 (protein, UniProt O95998 31-194, looked up)
Interleukin-18-binding protein: TPVSQTTTAATASVRSTKDPCPSQPPVFPAAKQCPALEVTWPEVEVPLNGTLSLSCVACSRFPNFSILYWLGNGSFIEHLPGRLWEGSTSRERGSTGTQLCKALVLEQLTPALHSTNFSCVLVDPEQVVQRHVVLAQLWAGLRATLPPTQEALPSSHSSPQQQG
For B1, the “effect on induction of IFN-γ” value (induction of IFN-γ) is given as “inhibits”, the Kd (IL-18) is given as 0.4 nM and the “effect on IL-18 activation of NF-κB” value [1] is given as “abolishes”. The “effect on IL-18 induction of IFN-γ” value (IL-18 induction of IFN-γ) was “abolishes”.
